Data set [1] deals with tobacco plants. Briefly: Herbicide spray tests of GAT expressing tobacco plants. It is filed as in vivo, Nicotiana tabacum. The following applies: transgenic GAT tobacco; for plant response two weeks after glyphosate spray: 0.5, 2 or 4× glyphosate (1× = 32 oz/acre of 40% ai); for survival after second spray: 8× glyphosate dose three weeks later. The protocol:
Tobacco shoots generated as described in EXAMPLE 9 were excised from the explants and transferred to basal root induction (BRI) medium composed of half-strength Murashige and Skoog (MS) medium, pH 5.7, with 1.5% sucrose, 0.3% Gelrite, 0-200 uM glyphosate and 400 ug/ml Timentin. Rooted plants and axillary shoots were clonally propagated by cutting the stem and transferring it to fresh BRI medium until the desired number of clones was obtained. Rooted plants were carefully removed from the solid medium. Prior to placing the plants into small pots of soil, the roots were washed to remove any remaining Gelrite. A protective plastic cover was kept over the plants for at least one week until the plants were well established.
To determine if GAT expressing tobacco plants could tolerate simulated field rate sprays of glyphosate, clonal lines of several events per GAT variant were tested. A typical test was set up as follows: One clone from each event was sprayed with 1 ml of solution containing the isopropylamine salt of glyphosate (Sigma P5671) and 0.125% Triton X-100, pH 6.8 such that the amount of active ingredient sprayed was equivalent to that present in commercial glyphosate products. For example, to achieve 32 oz/acre (1×) of herbicide containing 40% active ingredient (“ai”), 2.4 ul of 40% ai formulation was diluted into 1 ml water and sprayed on a plant in a 4-inch square pot (16 in^2). A mock application (0×) with surfactant only was also included. In some cases a second spray was applied 1-4 weeks later. Plants were kept in controlled growth rooms at 25° C. and 70% humidity with 16 hr light.
Seed-grown wild type plants were also sprayed. […] All 0× plants were healthy, including the non-GAT control plants. Three weeks later all of the surviving plants were sprayed with an 8× dose.

The test system of data set [2] is soybean plants. The data set can be described thus: Greenhouse glyphosate spray of T0 soybean plants expressing GAT transgenes (discoloration score). Format: in vivo. The following applies: for number of events @ 3-6 / number of events @ 7-8: count in parentheses. The protocol:
Soybean plants expressing GAT variant transgenes were produced using the method of particle gun bombardment (see Klein et al. (1987) Nature 327:70-73) using a DuPont Biolistic PDS1000/He instrument. The selection agent used during the transformation process was hygromycin. Either the hygromycin selectable marker gene remained in the transgenic events or the hygromycin gene was excised by methods known in the art. DNA fragments were prepared with a synthetic constitutive promoter, a GAT variant and PinII terminator. The selectable marker gene, comprising the 35S CaMV promoter, HPT gene and NOS terminator, was cobombarded with the GAT gene variant as described above. Bombarded soybean embryogenic suspension tissue was cultured for one week in the absence of selection agent. Embryogenic suspension tissue was placed in liquid selection medium for 6 weeks. Putative transgenic suspension tissue was sampled for PCR analysis to determine the presence of the GAT gene. Putative transgenic suspension culture tissue was maintained in selection medium for 3 weeks to obtain enough tissue for plant regeneration. Suspension tissue was matured for 4 weeks using standard procedures; matured somatic embryos were desiccated for 4-7 days and then placed on germination induction medium for 2-4 weeks. Germinated plantlets were transferred to soil in cell pack trays for 3 weeks for acclimatization. Plantlets were potted to 10-inch pots in the greenhouse for evaluation of glyphosate resistance.
To determine the level of glyphosate resistance of transgenic soybeans expressing the GAT variant transgenes, T0 plants were sprayed with glyphosate (Roundup ULTRA MAX™) in the greenhouse. Plant resistance levels were evaluated by […] • 7=minor leaf/stem discoloration • 5=worse leaf/stem discoloration • 3=severely discolored plant or dying plant • 1=dead plant
One to four plants were sent to the greenhouse from each independent transgenic event. An additional 1-2 plants per event were grown in controlled environment growth chambers for seed production and were not sprayed with glyphosate. The greenhouse plants were sprayed at 1×, 2× or 4× glyphosate (1× glyphosate=26 ounces/acre of RoundUp ULTRA MAX™) 3-4 weeks after transfer to soil. The T0 plant discoloration scores with 2× and 4× spray rates are shown in Table 10 and Table 11, respectively.

Data set [3] can be described thus: Transfer of the propionyl group from propionyl CoA to glyphosate (DTNB). Format: biochemical. The following applies: 1 mM propionyl CoA, 5 mM glyphosate or no glyphosate, 30 minutes. Here is the method:
The ability of GAT variants (B6 (SEQ ID NO:7), 0—6D10 (SEQ ID NO:448), 17-15H3 (SEQ ID NO:601), and 20-8H12 (SEQ ID NO:816)) to transfer the propionyl group from propionyl CoA to glyphosate was tested in reaction mixtures containing 5 mM glyphosate or no glyphosate. Propionyl CoA was present at 1 mM. After 30 minutes the reactions were terminated and the presence of free […] was determined by the addition of DTNB.

Data set [4] in a line: Standard protocol for determination of kcat and KM (continuous spectrophotometric assay, Acetyl CoA hydrolysis at 235 nm). Format: biochemical. The following applies: purified protein, about 23° C., 0.2 mM acetyl CoA; for Kcat: 20 mM HEPES pH 6.8, 10% ethylene glycol; for Km: pH 6.8, glyphosate 0.125 to 10 mM. The procedure, abridged: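 KM from initial rates over 0.125–10 mM glyphosate, fitted by Lineweaver-Burke transformation of Michaelis-Menten; kcat/KM computed as kcat divided by KM. Continuous spectrophotometric read of acetyl-CoA hydrolysis at 235 nm.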

Where [5] appears, read: 10 days after 2X glyphosate (1× = 26 ounces/acre), 7=minor leaf/stem discoloration.
[6] abbreviates: 10 days after 2X glyphosate, 5=worse discoloration, 3=severely discolored or dying.

Numbering of substitutions follows the chain as printed.

B1: SEQ ID NO: 193: GAT gene variant (nucleic acid)
DNA: ATGCTAGAGGTGAAACCGATTAACGCAGAGGATACCTATGAACTAAGGCATAGAATACTCAGACCAAACCAGCCGATAGAAGCGTGTATGTATGAAAGCGATTTACTTCGTGGTGCATTTCACTTAGGCGGCTATTACAGGGGCAAACTGATTTCCATAGCTTCATTCCACCAGGCCGAGCACTCAGAACTCCAAGGCCAGAAACAGTACCAGCTCCGAGGTATGGCTACCTTGGAAGGTTATCGTGAGCAGAAAGCGGGATCGAGTCTAATTAAACACGCTGAAGAAATTCTTCGTAAGAGGGGGGCGGACTTGCTTTGGTGTAATGCGCGGACATCCGCCTCAGGCTACTACAAAAAGTTAGGCTTCAGCGAGCAGGGAGAGATATTTGAAACGCCGCCAGTAGGACCTCACATCCTGATGTATAAAAGGATCACATAA
modifications: Synthetic DNA Sequence; 0_5D3
notes: GAT gene variant
On to B1, for which, in data set [1], the “plant response two weeks after glyphosate spray” value was “survived the spraying procedure without signs of glyphosate damage” and the “survival after second spray” value is given as “all GAT plants survived”. In addition, the “% EVENTS @ 7-8” value in data set [2] (setting [5]) is given as 15%. In data set [2] (setting [6]), the “% EVENTS @ 3-6” value is recorded as 11%. In addition, in data set [2] (10 days after 2X glyphosate), the “number of events @ 3-6” value came to 3 and the “number of events @ 7-8” value came out at 4.

B2: SEQ ID NO:601: GAT variant polypeptide (protein)
chain: MIEVKPINAEDTYELRHRILRPNQPIEACMFESDLLRGAFHLGGYYGGKLISIASFHQAEHSELQGQKQYQLRGMATLEGYREQKAGSSLIKHAEEILRKRGADLLWCNARTSASGYYKKLGFSEQGEVFDTPPVGPHILMYKRIT
modifications: D_S00260796_17-15H3
notes: GAT variant polypeptide
As for B2, in data set [3], the “transfer of propionyl group to glyphosate” value (shortened to “transfer of propionyl group”) was “glyphosate-dependent hydrolysis of propionyl CoA”.

B3: SEQ ID NO:816: GAT variant (protein)
chain: B2 chain with I19V, M30I, L36M, Y45F, K49R, I53V, I91V
modifications: Synthetic DNA Sequence; CDS (1)...(441); 20-8H12c
notes: GAT variant
As to B3, the “transfer of propionyl group” value in data set [3] was “glyphosate-dependent hydrolysis of propionyl CoA”.

B4: SEQ ID NO: 824: GAT gene variant expressed in transgenic soybean (nucleic acid)
DNA: ATGATAGAGGTGAAACCGATTAACGCAGAGGATACCTATGAACTAAGGCATAGAATACTCAGACCAAACCAGCCGATAGAAGCGTGTATGTTTGAAAGCGATTTACTTCGTGGTGCATTTCACTTAGGCGGCTTTTACAGGGGCAAACTGATTTCCATAGCTTCATTCCACCAGGCCGAGCACTCGGAACTCCAAGGCCAGAAACAGTACCAGCTCCGAGGTATGGCTACCTTGGAAGGTTATCGTGAGCAGAAAGCGGGATCAACTCTAGTTAAACACGCTGAAGAAATCCTTCGTAAGAGGGGGGCGGACATGCTTTGGTGTAATGCGAGGACATCCGCCTCAGGCTACTACAAAAAGTTAGGCTTCAGCGAGCAGGGAGAGATATTTGACACGCCGCCAGTAGGACCTCACATCCTGATGTATAAAAGGATCACATAA
modifications: Synthetic DNA Sequence; CDS (1)...(441); 18-28D9c
notes: GAT gene variant expressed in transgenic soybean
As for B4, the “% EVENTS @ 7-8” value in data set [2] (setting [5]) turned out to be 8%. The “% EVENTS @ 3-6” value in data set [2] (setting [6]) was found to be 74%. Further, in data set [2] (10 days after 2X glyphosate), the “number of events @ 3-6” value is on record as 23 and the “number of events @ 7-8” value is 3. Besides, in data set [2] (10 days after 4X glyphosate), the “% EVENTS @ 3-6” value is 43%, the “% EVENTS @ 7-8” value is 8%, the “number of events @ 3-6” value is 10 and the “number of events @ 7-8” value is given as 2.

B5: SEQ ID NO: 448: GAT polypeptide (protein)
chain: MLEVKPINAEDTYELRHKILRPNQPLEVCMYETDLLRGAFHLGGFYRGKLISIASFHQAEHSDLQGQKQYQLRGMATLEGYRDQKAGSSLIRHAEQILRKRGADMLWCNARTSASGYYKKLGFSEQGEVFETPPVGPHILMYKRLT
modifications: 0_6D10
notes: GAT polypeptide
B5: the Kcat in data set [4] is 1.85 s⁻¹. In data set [3], the “transfer of propionyl group” value is “glyphosate-dependent hydrolysis of propionyl CoA”.

B6: SEQ ID NO: 352: GAT polypeptide (protein)
chain: MIEVKPINAEDTYEIRHRILRPNQPLEACMYETDLLGGTFHLGGYYRGKLISIASFHQAEHSELEGQKQYQLRGMATLEGYREQKAGSTLIRHAEELLRKKGADLLWCNARISVSGYYKKLGFSEQGGVYDIPPIGPHILMYKKLA
modifications: 24C6
notes: GAT polypeptide
As for B6, in data set [4], the Kcat came out at 0.045 s⁻¹ and the Km (in general, the concentration of substrate that gives half-maximal velocity) worked out at 1300 µM.

B7: SEQ ID NO: 355: GAT polypeptide (protein)
chain: B6 chain with M30K, R47Q, I53T, E60G, Q84R, V114A, A146T
modifications: 2H3
notes: GAT polypeptide
Regarding B7, in data set [4], the Kcat was determined as 0.268 s⁻¹ and the Km was 900 µM.

B8: SEQ ID NO: 353: GAT polypeptide (protein)
chain: B6 chain with M30K, Q58N, I112T, V114A, K119E, G128E
modifications: 24E7
notes: GAT polypeptide
B8: in data set [4], the Kcat stood at 0.148 s⁻¹ and the Km amounted to 900 µM.

B9: SEQ ID NO: 354: GAT polypeptide (protein)
chain: B6 chain with G48D, K49R, I112T, V114A, K119E, G128E, A146T
modifications: 2_8C3
notes: GAT polypeptide
Regarding B9, in data set [4], the Kcat stood at 0.413 s⁻¹ and the Km is 1500 µM.

B10: SEQ ID NO: 356: GAT polypeptide (protein)
chain: B6 chain with Y31F, T39A, R47Q, I112T, G128E, A146T
modifications: 30G8
notes: GAT polypeptide
Consider B10, for which, in data set [4], the Kcat is 0.17 s⁻¹ and the Michaelis constant (Km) turned out to be 1600 µM.

B11: SEQ ID NO: 266: GAT polypeptide (protein)
chain: MIEVKPINAEDTYEIRHRILRPNQPLEACKYETDLLRGAFHLGGYYRGKLVSIASFHQAEHPELEGQKQYQLRGMATLEGYREQKAGSTLIRHAEELLRKKGADLLWCNARTSASGYYKKLGFSEQGEVYDTPPTGPHILMYKKLT
modifications: 14_2C1
notes: GAT polypeptide
As to B11, in data set [4], the Kcat was determined as 2.223 s⁻¹ and the Km was 3100 µM.

B12: SEQ ID NO: 190: evolved GAT gene (nucleic acid)
DNA: ATGATAGAGGTGAAACCGATTAACGCAGAGGATACCTATGAACTAAGGCATAAAATACTCAGACCAAACCAGCCGATAGAAGCGTGTATGTATGAAAGCGATTTACTTCGTGGTGCATTTCACTTAGGCGGCTTTTACAGGGGCAAACTGATTTCCATAGCTTCATTCCACCAGGCCGAGCACTCAGACCTCCAAGGCCAGAAACAGTACCAGCTCCGAGGTATGGCTACCTTGGAAGGTTATCGTGATCAGAAAGCGGGATCGAGTCTAATTAGACACGCTGAACAAATTCTTCGTAAGAGGGGGGCGGACTTGCTTTGGTGCAATGCGCGGACATCCGCCTCAGGCTACTACAAAAAGTTAGGCTTCAGCGAGCAGGGAGAGATATTTGATACGCCGCCAGTAGGACCTCACATCCTGATGTATAAAAGGCTCACA
modifications: Synthetic DNA Sequence; 0_5B8
notes: evolved GAT gene
As for B12, in data set [1], the “plant response two weeks after glyphosate spray” value is reported as “survived the spraying procedure without signs of glyphosate damage” and the “survival after second spray” value is “all GAT plants survived”.
